Experiments:
nepetalactol [1] = experiment: In vitro conversion of nepetalactol to nepetalactone by candidate NORs in clarified cell lysate with NAD+ or NADP+ (GC-MS); assay type: biochemical; settings: clarified lysate of E. coli BL21 (DE3) expressing the candidate, 30° C., 2 hours
Method: BL21 (DE3) strains were streaked out on LB plates containing kanamycin from glycerol stock and grown overnight at 37° C. A single colony was inoculated into 4 mL of LB medium containing kanamycin in 15 mL disposable culture tubes and incubated overnight at 30° C. with shaking at 250 rpm. 500 μL of the overnight culture was subcultured into 50 mL of LB medium containing kanamycin in a 250 mL baffled flask. The culture was grown at 37° C. and the optical density at 600 nm (OD600) was monitored. When OD600 reached between 0.6-1, the cultures were cooled on ice for 15 minutes. The cultures were then induced with 100 μM of isopropyl β-D-1-thiogalactopyranoside and incubated at 15° C. with shaking at 250 rpm for roughly 20 hours. Cultures were pelleted by centrifugation in 50 mL centrifuge tubes. The supernatant was decanted and the pellets were frozen at −20° C. for later processing.
Pellets were thawed on ice and resuspended with 3 mL of cold lysis buffer: 50 mM sodium phosphate, pH=7.4, 100 mM sodium chloride. All remaining steps were performed either on ice or at 4° C. The cell mixture was transferred to a 15 mL centrifuge tube and disrupted with three rounds of sonication using the Branson Sonifier 450 with a double-level microtip at 70% amplitude. A single round of sonication consisted of 6 cycles of 10 seconds with the sonicator on, and 10 seconds off. Between each round, the cell mixture was allowed to sit on ice for a minute to cool. The lysed cell mixture was transferred to 1.7 mL centrifuge tubes and centrifuged at maximum speed in a microcentrifuge for 20 minutes. The supernatant (clarified cell lysate) was collected in a separate tube and used for in vitro characterization.
The in vitro reactions were setup as follows: 2 μL of 100 mM NAD+ or NADP+ and 10 μL of 100 uM nepetalactol was added to 188 μL of the clarified cell lysate. The reactions were incubated at 30° C. shaking at 200 rpm for 2 hours. […] The organic layer was withdrawn and analyzed with gas chromatography coupled to mass spectrometry (GC-MS). […]

nepetalactol [2] = experiment: Production of nepetalactone from nepetalactol in Saccharomyces cerevisiae strains expressing NOR candidates from 2μ plasmid pESC-URA; assay type: cell-based; settings: 2% galactose, 100 mg/L of nepetalactol fed, 30° C., 24 hours
Method: 300 μL of ethyl acetate was added to the cultures. The plates were sealed with a PlateLoc Thermal Microplate Sealer and the plates were shaken for one min at 750 rpm. The plates were centrifuged and the ethyl acetate layer was collected and analyzed by liquid chromatography coupled to mass spectrometry (LC-MS). Target analytes were quantified against authentic standards.
The plasmids were individually transformed into chemically competent Saccharomyces cerevisiae cells as described in EXAMPLE 2. Transformants were selected on SD-URA agar plates. Three to four replicates were picked into SD-URA liquid medium and cultured at 30° C. for one to two days with shaking at 1000 rpm. Cultures were glycerol stocked at a final concentration of 16.6% glycerol and stored at −80° C. until later use.
10 μL of the glycerol stocked strains was inoculated into 300 μL of minimal media lacking uracil, and containing 4% glucose in 96-well plates to produce seed cultures. The plates were incubated at 30° C. at 1000 rpm for 1-2 days. 10 μL of the seed cultures was then inoculated into 300 μL of minimal media lacking uracil, and containing 2% galactose and 100 mg/L of nepetalactol. 30 μL of methyl oleate was next added to the wells. The main culture plates were further incubated at 30° C., 1000 rpm for 24 hours before assays were performed to assess cell growth and titer. […]

B1: NcatNOR34: candidate nepetalactol oxidoreductase (NOR) from Nepeta cataria, protein SEQ ID NO: 578 (protein, listed as Nepeta cataria)
chain: MAFCRSSLLLRKALGGSRRAAAAATCSSAYACGWQSERGRWYSGGEGTTISAPGYHVNTAPSHMTGAVFWDKDKPITYEEFEMPRPKANEVLIKTKACGACHSDLHVIKGDLKFPCPCILGHEITGEVVEHGPLTETKYIERYPVGSKVIGAFIMPCGSCFYCSRGEDDLCEPYFAYNRAKGTLYDGQTRLFLRGSGKPVHMWSMSGLAEYCVTPVNGLGALPDTLPYAESSVLGCAVFTAYGAIAHAAEVKPGNSVAVIGIGGVGSSCLQIAKAFGASEIIAVDVEDGKLETAKTFGATHIINSRKEDAIAKIKELTDGRGVDIAVEAIGGPKTFAQCVGSVRAGGKAVMIGLSPTGGKGEVEITQLVRRKVKVIGSYGGRAMTDLPKLVELAEQGTFNLEAAVTRRYKFEEVAQAYQDLQNKTIVGRGVIEIM
oxidation of nepetalactol to nepetalactone (nepetalactol [1]): can oxidize nepetalactol to nepetalactone

B2: GAR_NOR15: NOR candidate codon-optimized for S. cerevisiae (SEQ ID NO: 1393), expressed from pESC-URA (protein, listed as Nepeta cataria)
chain: MADKEGEVVCVTGGSGFIGSWLVSLLLRRGYSVRATVKNLGDERETKHLEAIEGADSRLSLFQIDLLDYDSVATAVGDAAGVFHLASPCTIDQVNDPQRELLDPAIKGTLNVLKAAKNLGVRRVVVTSSISAMIASSNSLAETGEDCWIDEDYCRQNGLWYPVSKALAEKAAWKLAEENGLDIVVVNPGMVVGPILPPALNSSMQLMLHVLQGKDFFEGFFMGLVHVKDVALAQILLYENTSASGRHLCVESLSRYDDFAKQMEKLYPEYKLPRFSNNAQHGSLKSDAALKKLRDLGIEFAPLEQIVKDSIESLRSKGYIS
nepetalactone produced (titer) (nepetalactol [2]): 93 mg/L

B3: NcatNOR21: candidate nepetalactol oxidoreductase (NOR) from Nepeta cataria, protein SEQ ID NO: 566 (protein, listed as Nepeta cataria)
chain: MAKSVNAVGWAARDTSGLLSPLKFARPAAGDRDVQFKVLYCGICHSDLHSIKNEWGNTQYPIVPGHEIVGVVTAVGPKATKFKAGDKVGVGCLVNSCRHCDQCAADLENYCPQLVQTYNSVLADGSVTYGGYSDVMTADEDFVIRWPENFPMDKGAPLLCAGVTTYSPLRYYGLDKPGLHIGVVGLGGLGHVAVKFAKAFGMKVTVISTSAGKKKEAIETLGADAFLISRDASEMQAAAGTLDGMIDTVSAQHPLPPLLSLLKPHGKLILVGAPEKPFELPAFPLLMGRKTVAGSVIGGLKETQEMIDFAAKHNLLPEVEMIPMDYVNTAMERLAKADVKYRFVIDVGNTLTKAD
oxidation of nepetalactol to nepetalactone (nepetalactol [1]): can oxidize nepetalactol to nepetalactone

B4: NcatNOR15: candidate nepetalactol oxidoreductase (NOR) from Nepeta cataria, protein SEQ ID NO: 561 (protein, listed as Nepeta cataria)
chain: MAKTPETEHPVKAFGYAATDNSGTFSPFKFSRRATGERDVQFKVLYCGVCHSDLHMVKNEWGVTHYPIVPGHEIVGVATEVGSKVEKVKVGDKVGVGVIVGSCRQCDQCSNDLENYCSKQILTYGAPYLDGTITRGGYSDIMVADEHFIIRWPENFPLDAGAPLLCAGITTYSPLRYFGLDKPGLRVGVNGLGGLGHVAVKFAKAFGTKVTVISSSLRKKKEAVEKLGVDEFLVSTDPEQMQAAIGTLDGIIDTVSAEHSVVSLLSLLKPHGRLIVVGAPEKPHQLPAFPLITGRKSISGSAIGGMKETQEMIDFAAKHNILPDVEVIPIDYINTAMERLLKSDVKYRFVIDVEKSLKA
oxidation of nepetalactol to nepetalactone (nepetalactol [1]): can oxidize nepetalactol to nepetalactone
